Values of other authors as cited in patent publication US20050261189A1, “Methods of promoting cardiac cell proliferation” (Hydra Biosciences, Inc., priority 2004, published 2005).

Test system: one or more non-cardiac cells types
Settings: cited from earlier work

Molecule | Wnt signaling pathway shown in one or more non-cardiac cell types
Wnt10b: Wnt polypeptide | signal via the canonical pathway
Wnt5b: Wnt polypeptide (protein, UniProt Q9H1J7 18-359, looked up) Protein Wnt-5b: QLLTDANSWWSLALNPVQRPEMFIIGAQPVCSQLPGLSPGQRKLCQLYQEHMAYIGEGAKTGIKECQHQFRQRRWNCSTADNASVFGRVMQIGSRETAFTHAVSAAGVVNAISRACREGELSTCGCSRTARPKDLPRDWLWGGCGDNVEYGYRFAKEFVDAREREKNFAKGSEEQGRVLMNLQNNEAGRRAVYKMADVACKCHGVSGSCSLKTCWLQLAEFRKVGDRLKEKYDSAAAMRVTRKGRLELVNSRFTQPTPEDLVYVDPSPDYCLRNESTGSLGTQGRLCNKTSEGMDGCELMCCGRGYNQFKSVQVERCHCKFHWCCFVRCKKCTEIVDQYICK | signal via the non-canonical signaling pathway
Wnt7b: Wnt polypeptide (protein, UniProt P56706 25-349, looked up) Protein Wnt-7b: ALSSVVALGANIICNKIPGLAPRQRAICQSRPDAIIVIGEGAQMGINECQYQFRFGRWNCSALGEKTVFGQELRVGSREAAFTYAITAAGVAHAVTAACSQGNLSNCGCDREKQGYYNQAEGWKWGGCSADVRYGIDFSRRFVDAREIKKNARRLMNLHNNEAGRKVLEDRMQLECKCHGVSGSCTTKTCWTTLPKFREVGHLLKEKYNAAVQVEVVRASRLRQPTFLRIKQLRSYQKPMETDLVYIEKSPNYCEEDAATGSVGTQGRLCNRTSPGADGCDTMCCGRGYNTHQYTKVWQCNCKFHWCCFVKCNTCSERTEVFTCK | signal via the non-canonical signaling pathway
Wnt4: Wnt polypeptide (protein, UniProt P56705 23-351, looked up) Protein Wnt-4: SNWLYLAKLSSVGSISEEETCEKLKGLIQRQVQMCKRNLEVMDSVRRGAQLAIEECQYQFRNRRWNCSTLDSLPVFGKVVTQGTREAAFVYAISSAGVAFAVTRACSSGELEKCGCDRTVHGVSPQGFQWSGCSDNIAYGVAFSQSFVDVRERSKGASSSRALMNLHNNEAGRKAILTHMRVECKCHGVSGSCEVKTCWRAVPPFRQVGHALKEKFDGATEVEPRRVGSSRALVPRNAQFKPHTDEDLVYLEPSPDFCEQDMRSGVLGTRGRTCNKTSKAIDGCELLCCGRGFHTAQVELAERCSCKFHWCCFVKCRQCQRLVELHTCR | signal via the non-canonical signaling pathway
Wnt6: Wnt polypeptide (protein, UniProt Q9Y6F9 25-365, looked up) Protein Wnt-6: LWWAVGSPLVMDPTSICRKARRLAGRQAELCQAEPEVVAELARGARLGVRECQFQFRFRRWNCSSHSKAFGRILQQDIRETAFVFAITAAGASHAVTQACSMGELLQCGCQAPRGRAPPRPSGLPGTPGPPGPAGSPEGSAAWEWGGCGDDVDFGDEKSRLFMDARHKRGRGDIRALVQLHNNEAGRLAVRSHTRTECKCHGLSGSCALRTCWQKLPPFREVGARLLERFHGASRVMGTNDGKALLPAVRTLKPPGRADLLYAADSPDFCAPNRRTGSPGTRGRACNSSAPDLSGCDLLCCGRGHRQESVQLEENCLCRFHWCCVVQCHRCRVRKELSLCL | signal via the canonical pathway
Wnt9b: Wnt polypeptide (protein, UniProt O14905 23-357, looked up) Protein Wnt-9b: SYFGLTGREVLTPFPGLGTAAAPAQGGAHLKQCDLLKLSRRQKQLCRREPGLAETLRDAAHLGLLECQFQFRHERWNCSLEGRMGLLKRGFKETAFLYAVSSAALTHTLARACSAGRMERCTCDDSPGLESRQAWQWGVCGDNLKYSTKFLSNFLGSKRGNKDLRARADAHNTHVGIKAVKSGLRTTCKCHGVSGSCAVRTCWKQLSPFRETGQVLKLRYDSAVKVSSATNEALGRLELWAPARQGSLTKGLAPRSGDLVYMEDSPSFCRPSKYSPGTAGRVCSREASCSSLCCGRGYDTQSRLVAFSCHCQVQWCCYVECQQCVQEELVYTCKH | signal via the canonical pathway
Wnt8a: Wnt polypeptide (protein, UniProt Q9H1J5 25-351, looked up) Protein Wnt-8a: VNNFLITGPKAYLTYTTSVALGAQSGIEECKFQFAWERWNCPENALQLSTHNRLRSATRETSFIHAISSAGVMYIITKNCSMGDFENCGCDGSNNGKTGGHGWIWGGCSDNVEFGERISKLFVDSLEKGKDARALMNLHNNRAGRLAVRATMKRTCKCHGISGSCSIQTCWLQLAEFREMGDYLKAKYDQALKIEMDKRQLRAGNSAEGHWVPAEAFLPSAEAELIFLEESPDYCTCNSSLGIYGTEGRECLQNSHNTSRWERRSCGRLCTECGLQVEERKTEVISSCNCKFQWCCTVKCDQCRHVVSKYYCARSPGSAQSLGKGSA | signal via the canonical pathway
Wnt16: Wnt polypeptide (protein, UniProt Q9UBV4 30-365, looked up) Protein Wnt-16: NWMWLGIASFGVPEKLGCANLPLNSRQKELCKRKPYLLPSIREGARLGIQECGSQFRHERWNCMITAAATTAPMGASPLFGYELSSGTKETAFIYAVMAAGLVHSVTRSCSAGNMTECSCDTTLQNGGSASEGWHWGGCSDDVQYGMWFSRKFLDFPIGNTTGKENKVLLAMNLHNNEAGRQAVAKLMSVDCRCHGVSGSCAVKTCWKTMSSFEKIGHLLKDKYENSIQISDKTKRKMRRREKDQRKIPIHKDDLLYVNKSPNYCVEDKKLGIPGTQGRECNRTSEGADGCNLLCCGRGYNTHVVRHVERCECKFIWCCYVRCRRCESMTDVHTCK | signal via the canonical pathway
Wnt8b: Wnt polypeptide (protein, UniProt Q93098 23-351, looked up) Protein Wnt-8b: WSVNNFLMTGPKAYLIYSSSVAAGAQSGIEECKYQFAWDRWNCPERALQLSSHGGLRSANRETAFVHAISSAGVMYTLTRNCSLGDFDNCGCDDSRNGQLGGQGWLWGGCSDNVGFGEAISKQFVDALETGQDARAAMNLHNNEAGRKAVKGTMKRTCKCHGVSGSCTTQTCWLQLPEFREVGAHLKEKYHAALKVDLLQGAGNSAAGRGAIADTFRSISTRELVHLEDSPDYCLENKTLGLLGTEGRECLRRGRALGRWERRSCRRLCGDCGLAVEERRAETVSSCNCKFHWCCAVRCEQCRRRVTKYFCSRAERPRGGAAHKPGRKP | signal via the canonical pathway
Wnt1: Wnt polypeptide (protein, UniProt P04628 28-370, looked up) Proto-oncogene Wnt-1: ANSSGRWWGIVNVASSTNLLTDSKSLQLVLEPSLQLLSRKQRRLIRQNPGILHSVSGGLQSAVRECKWQFRNRRWNCPTAPGPHLFGKIVNRGCRETAFIFAITSAGVTHSVARSCSEGSIESCTCDYRRRGPGGPDWHWGGCSDNIDFGRLFGREFVDSGEKGRDLRFLMNLHNNEAGRTTVFSEMRQECKCHGMSGSCTVRTCWMRLPTLRAVGDVLRDRFDGASRVLYGNRGSNRASRAELLRLEPEDPAHKPPSPHDLVYFEKSPNFCTYSGRLGTAGTAGRACNSSSPALDGCELLCCGRGHRTRTQRVTERCNCTFHWCCHVSCRNCTHTRVLHECL | signal via the canonical pathway
Wnt3: Wnt polypeptide (protein, UniProt P56703 22-355, looked up) Proto-oncogene Wnt-3: GYPIWWSLALGQQYTSLGSQPLLCGSIPGLVPKQLRFCRNYIEIMPSVAEGVKLGIQECQHQFRGRRWNCTTIDDSLAIFGPVLDKATRESAFVHAIASAGVAFAVTRSCAEGTSTICGCDSHHKGPPGEGWKWGGCSEDADFGVLVSREFADARENRPDARSAMNKHNNEAGRTTILDHMHLKCKCHGLSGSCEVKTCWWAQPDFRAIGDFLKDKYDSASEMVVEKHRESRGWVETLRAKYSLFKPPTERDLVYYENSPNFCEPNPETGSFGTRDRTCNVTSHGIDGCDLLCCGRGHNTRTEKRKEKCHCIFHWCCYVSCQECIRIYDVHTCK | signal via the canonical pathway
Wnt9a: Wnt polypeptide (protein, UniProt O14904 30-365, looked up) Protein Wnt-9a: YFGLTGSEPLTILPLTLEPEAAAQAHYKACDRLKLERKQRRMCRRDPGVAETLVEAVSMSALECQFQFRFERWNCTLEGRYRASLLKRGFKETAFLYAISSAGLTHALAKACSAGRMERCTCDEAPDLENREAWQWGGCGDNLKYSSKFVKEFLGRRSSKDLRARVDFHNNLVGVKVIKAGVETTCKCHGVSGSCTVRTCWRQLAPFHEVGKHLKHKYETALKVGSTTNEAAGEAGAISPPRGRASGAGGSDPLPRTPELVHLDDSPSFCLAGRFSPGTAGRRCHREKNCESICCGRGHNTQSRVVTRPCQCQVRWCCYVECRQCTQREEVYTCKG | signal via the canonical pathway
Wnt2: Wnt polypeptide (protein, UniProt P09544 26-360, looked up) Protein Wnt-2: SWWYMRATGGSSRVMCDNVPGLVSSQRQLCHRHPDVMRAISQGVAEWTAECQHQFRQHRWNCNTLDRDHSLFGRVLLRSSRESAFVYAISSAGVVFAITRACSQGEVKSCSCDPKKMGSAKDSKGIFDWGGCSDNIDYGIKFARAFVDAKERKGKDARALMNLHNNRAGRKAVKRFLKQECKCHGVSGSCTLRTCWLAMADFRKTGDYLWRKYNGAIQVVMNQDGTGFTVANERFKKPTKNDLVYFENSPDYCIRDREAGSLGTAGRVCNLTSRGMDSCEVMCCGRGYDTSHVTRMTKCGCKFHWCCAVRCQDCLEALDVHTCKAPKNADWTTAT | signal via the canonical pathway
Wnt7a: Wnt polypeptide (protein, UniProt O00755 32-349, looked up) Protein Wnt-7a: LGASIICNKIPGLAPRQRAICQSRPDAIIVIGEGSQMGLDECQFQFRNGRWNCSALGERTVFGKELKVGSREAAFTYAIIAAGVAHAITAACTQGNLSDCGCDKEKQGQYHRDEGWKWGGCSADIRYGIGFAKVFVDAREIKQNARTLMNLHNNEAGRKILEENMKLECKCHGVSGSCTTKTCWTTLPQFRELGYVLKDKYNEAVHVEPVRASRNKRPTFLKIKKPLSYRKPMDTDLVYIEKSPNYCEEDPVTGSVGTQGRACNKTAPQASGCDLMCCGRGYNTHQYARVWQCNCKFHWCCYVKCNTCSERTEMYTCK | signal via the canonical pathway
Wnt11: Wnt polypeptide (protein, UniProt O96014 25-354, looked up) Protein Wnt-11: IKWLALSKTPSALALNQTQHCKQLEGLVSAQVQLCRSNLELMHTVVHAAREVMKACRRAFADMRWNCSSIELAPNYLLDLERGTRESAFVYALSAAAISHAIARACTSGDLPGCSCGPVPGEPPGPGNRWGGCADNLSYGLLMGAKFSDAPMKVKKTGSQANKLMRLHNSEVGRQALRASLEMKCKCHGVSGSCSIRTCWKGLQELQDVAADLKTRYLSATKVVHRPMGTRKHLVPKDLDIRPVKDSELVYLQSSPDFCMKNEKVGSHGTQDRQCNKTSNGSDSCDLMCCGRGYNPYTDRVVERCHCKYHWCCYVTCRRCERTVERYVCK | signal via the non-canonical signaling pathway
